# Results published in the nanobody polyreactivity screen of Harvey et al. (2022).
# Test: yeast display, Sf9 membrane polyspecificity reagent, FACS + sequencing; frameworks hold sequencing errors
# In short: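 Nanobodies came from a synthetic yeast display library in Saccharomyces cerevisiae BJ5465, induced with galactose for 36–48 hours and stained for 1 hour at 4 °C with 10% biotinylated, detergent-solubilized Sf9 membrane reagent. Cells were enriched on streptavidin microbeads and then FACS-sorted, with low and high (top ~1%) gates set on anti-HA fluorescence for expression and streptavidin fluorescence for reagent binding. Each polyreactivity label reflects the gate a clone came from. Genes were amplified by colony PCR, sequenced by MiSeq 2 × 250 and filtered by CDR length.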
row,Sequence,polyreactivity (PSR sort gate)
1,QVQLVESGGGLVQAGGSLRLSCAASGSIFGGYTMGWYRQAPGKERKLVAAISRRGGNTYYADSVKGRFTISRDNAKNTVYLLMNSLKPEDTAVYYCAVRWPSARIPVKLDYWGQGTQVTVSS,high polyreactivity
2,QVQLVESGGGLVQAGGSLRLSCAASGSIFYRYAMGWYRQAPGKERELVAAITSTGSRTFYADSVKVRFTISRDNAKNTVYLQMNSLKPEDTAVYYCAADARYNGYHGVDYWGQGTLVTVSS,high polyreactivity
3,QVQLVESGGGLVQAGGSLRLSCAASGYIFLAYAMGWYRQAPGKERELVADNTYADSVKGRFTISRDNAKNTVYLQMNSLKPEDPAVYYCNADEVYDEYSYDYWGQGTQVTVSS,low polyreactivity
4,QVQLVESGGGLVQAGGSLRLSCAASGRIFDGNAMGWYRKAPGKERELVATITRGGRTNYADSVKGRFTISRDNAKNTVYLQMNSLKPEDTAVYYCNAPIYGRYYDLDYWGQGTQVTVSS,low polyreactivity
5,QVQLVESGGGLVQAGGSLPLSCAASGGTFRGNAMGWYRQAPGKERELVAAITGSGGSTYYADSVTGRFTISRDNAKNTVYLQMNSLKPEDSAVYYCAVDRASRRTYNQYGYWGQGTQVTVSS,high polyreactivity
6,QVQLVETGAGLVQAGGSLRLSCAASGILLFNAMGWNTQPPGKERELVAAINSGGSTNYADSVKGRFTISRDNAKNTVYFQMNSLIPEDTAVYFCAKDTPFTLRVWAEGGMDYWGHGTQVTVSS,low polyreactivity
7,QVQLVESGGGLVQAGGSLRLSCYASGFIFHSYAMGWYRQAPGKERELVASISRGGGSTYYADSVKGRFTISRDNAKNTVYLQKNSLKPEDTPVYYCNAVWRSNSRFDYWGQCTQVTVSS,high polyreactivity
8,QLQLVESGGGLVQAGGSLRLSCAASGRIFYPYAMGWYRQAPGKERELVPAIDYSDGNSYYADSVKGRFTISRDNAKNTVYLQMNSLKPEDTAVYYWAVEYTGAWIGVWYDYWGQGTQVTVSS,high polyreactivity
9,QVQLVESGGGLVQAGGSLRLSCAASGFIFSFYAMGWYRQAPGKERALVAAINWSGGSTYYADSVKGRFTISRDNAKNTVYIQMNSLKPEDTEVYYCNAVQYFSIPKPVWLFVLRYYYWGQGTQVTVSS,low polyreactivity
10,QVQLVESGGGLVQAGGSLRLSCAASGFTFDWYAMGWYRQAPGKERELVAAMYYADSVKGRFTISRDNAKNTVYLQMNSLKPEDTAVYYCNAGGYFFPTVYHYGYWGQGTQVTVSS,low polyreactivity
11,QVQLVESGGGLVQAGGSLSLSCAATGSIFPPNAMGWYRQAPGKEREFVASITSSGGITNYADSVKGRFTISRDTAKNTVYLQMNSLKTEDTAVYYCAAKYYGGTRFRPYGYWGQGTQVTVSS,high polyreactivity
12,QVQLVESGGGLVQAGGSLRLSCAASGRIFGIYAMGWYRQAPGKERELVSRITGGGSTNYADSVKGRFTISRDNAKNTVYLQMNSLKPEDTAVYYCAADSYLSVYDPYGYWGQGTQVTVSS,low polyreactivity
13,QGQLVESGGGLVQAGGSLRLSCAASGRIVGPNTMGWSRQAPGKERELVAAISSGGGTYYADSVKGRFTISRDNAKNTVYLQMNSLKPEDTAVYYCAADYTTLKLYYWFDYWGQGTHVTVSS,low polyreactivity
14,QVQLVESGGGLVQAGGSLRLSCAASGSTFTRNAMGWYRQAPGKEWELVAAITSSGGSTYYAASVKGRFTISRDNAKNTVYLQMNSLKPEDNAVYYCAAYPHRPRDPELDHWGQGTQVTVSS,low polyreactivity
15,QVQLVESGGGLVQAGGSLRLSCAASGSTILTYVMGWYRQAPGKERELVAAISYSGGRSYYADSVKGRFTISRDTAKNTVYLQMNSLKPEDTAVYYCAAYRVNKSSRTMDYWGQGTQVTVSS,high polyreactivity
16,QVQLVESGGGLVQAGGSLRLSCAASGRTFGYYALGWYRQAPGKERELVAAISSNTDSTYYADSVKGRFTISRDNEKNTVYLQMNSLKPEDTAVYYCAAEAYSYYPGTYEDDYWGQGTQVTVSS,low polyreactivity
17,QVQLVESGGALVQAGGSLRLSCAASGIIFWLYDMGWSRQAPGKERELVAVMTWSGDSTYADSVKGRFTISRDNAKNTVYLQMNSLKPEDNAVYYCAAREYYRKPYDHWGQGTQVTVSS,high polyreactivity
18,HVQHVESGGGLVQAGGSLRLSCAASGFTFFYYTMGWYRQAPGKERELVAAISKGGGSTFYADSVKGRFTISRDNAKNTVYLQMNSLKPEDTAVYYCAASYVRGYDYWGQGTQVTVSS,high polyreactivity
19,QVQLVESGGCLVQAGGSLRLSCDASGSIFYRNVIGWYRQAPGKERELVATISRGGTTNYADSVKGRFTISRDNAKNTVYLQMNSLKPEDTAVYYCAADASSKLYDYWGQGTQVTVSS,low polyreactivity
20,QVQLVESGGGLVQAGGSLRISCAASVSTFGRYAMGWYRQAPGKERELVAAISRGTTTNYADSVKGRFTISRDNAKNTVYLQMNSLKPEDTAVYYCAADQPSKRYYYWGQGTQVTVSS,low polyreactivity
21,QVQLVESGGGLVQAGGSLSLSCAASGRTFVPYAMGWDRQAPGKERELVAAISRSGSSTYYADSVKGRFTISRDNAKNTVYLQMNSLKPEDTAVYYCAADPVYYYIGDFNYWGQGTQVTVSS,high polyreactivity
22,QVQLVESGGGLVQAGGSLRLSCAASGRILVDYAMGWYRQAPGKERELVAAITSTGGTTYYADSVKGRFTISRDNAKNTVYLQMNSLKPEDTAVYYCAAKRQDSWGGTYGYWGQGTQVTVSS,low polyreactivity

row,Sequence,polyreactivity (PSR sort gate)
1,QVQLVESGGGLVQAGGSLRLSCAGSGFTFQYYAMGWYRQAPGKERELVAAMSWGGGSTYYADSVKGRFTISRDNAKKTVYLQMNSLKPEDTAVYYCNAYDYLSAGDDYWGQGTQVTVSS,low polyreactivity
2,QVQLVESGAGLVQAGGSLRLSWAASGRIFTGNGMGWYRQAPGKEMELVAGIRNGGGRTYYADSVKGRFTISRDNAKNTVYLKMNSLKPEDTAVYYCAVRIYVRNSPGERLDKYDYWGQGTQVTVSS,high polyreactivity
3,QVQLVESGGGLVQAGGSLRLSCAASGRTFYTNAKGWYRQAPGKERELVAAISSDSSTNYADSVKGRLTISRDNAKNTVYLQMNSLKPEDTAVYYCNKVRQGWADYEYWGQGSQVTVSS,low polyreactivity
4,QVQLVESGGGLVQAGGSLRLSCAASGFIFTDNAMGWYRQAPGKERELVAAISKNGGSTYYADSVKGRFTISRDNAKNTVYLQMNSLKPDDTAVYYCNAVRRDSGTYRSPDTTRYDYWGQVTQVTVSS,high polyreactivity
5,QVQLVESGGGLVQAGGSLRLSCAASGSTFHSNAMGWYRQAPGKERELVAAISQGGGRTYYADSVKGRFSISRDNAKNTVYLQMNSLKPEDTAVYYCNRRTRGLIDGGMDYWGQGTQGTVSS,low polyreactivity
6,QVQLVESGGGLVQAGGSLRLSCAASGSTFRRYVMGWYRQAPGKERELVAAIRWNVGSTYYADSVKGRFTISRDNAKNTVYLQMNSLKPEDTAVYYCAAYEYVRGGYGYWGQGTQVTVSS,high polyreactivity
7,QVQLVESGAGLVQAGGSLRLSCAASGITFSYYSMGWYRQAPGKERELVAVISGSGSTTSYADSVKGRFTISRDNAKNTVYLQMNSLKPEDTAVYYCAADGGWRPEYYYWGQGTQVTVSS,low polyreactivity
8,QVQLVESGGGLVQAGGSLRLSCAASGLTFSRYAKGRYRQAPGKERELVAAISSSGTRTYYADSVKGRFTISRDNAKITVYLQMNSLKPEDTAVYYCAARSGGSGGTYGYWGHGTQVTVSS,high polyreactivity
9,QVQLVESGGGLVQAGGSLRLSCAASGSSFRYNAMGWYREAPGKEREMVAAITSSATSTYYADSVKGRFTISRDNAKNTVYLQMNSLKPEATAVYYCAAPPVYKWVSSRYDYWGQGTQVTVSS,low polyreactivity
10,QVQLQERGGGQVQAGGSLRLSCAASGTIFLYAFMGWYRQAPGKERELVAAIDVGTTTNYADSVKGRFTISRDNAKNTVYLQMNSLKPEDTAVYYCAANLGYLDDLGYWGQGTQVTVSS,low polyreactivity
11,QVQLVESGGGLVQAGGSLRISCAASGSNFTRYAMGWYRQAPGKERELVAAISNRGGRTYYADSVKGRFTISRDNAKNTVYLQMNSLKPEDTGVYYCNAATTRRIPQSDNYWGQGTQVTVSS,high polyreactivity
12,QVQLVESGGGLVQSGGSLRLSCAASGSTFDYNAMGWYRQPPGKERELVAAINSGASTYYADSVKGRFTISRDNAKNTVYLLMNSLKPEDTAVYYCAKDYLYIGDYWGQGTQVTVSS,low polyreactivity
13,QVQLVESGGGLVQAGGSLRLSCAASGSTFGYNGMGWFRQAPGKERELVAAISGGARTYADSVKGRFTISRDNAKNTVYLQMNSLKPEDTAVYYCAAGVFHIFSRGNYDPSEYEYWGQGTQVTVSS,low polyreactivity
14,QVQLVESGGGLVQAGGSLRLSCAASGLTFAAYAMGWYRQAPGKEREMVAAISRRGGSTYYADSVKGRFTISRDNAKNTVYLQMNRLKPEDTAVYYCARGGSRLTQGWLVTPYDYDYWGQGTQVNVSS,high polyreactivity
15,QVQLVESGGGLVQAGGSLRLSCAASGIIFHVYAMGWYRQAPGKERELVAAISDDGSTNYADSVKGRFTISRDNAKNTVYLQMNSLKPEDTAVYYCAKESWGRLYYRYDYWGQGTQVTVSA,low polyreactivity
16,QVQLVETGGGLVQAGGSLRLSCAASGSSFGSYAMGWYREAPGKERELVAAISSSGASTYYADSVKGRFTISRDNAKITVYLQMNSLKPEDTAVYYCNAARRYPTRGGYWGQGTQVTVSS,high polyreactivity
17,QVQLVESGGGLDQAGGSLRLSCAASGSIFWSYDRGWYRQAPGKETELVATITSGDSTYYADSVKGRFTISRDNEKNTVYLPMKSLKPEDTAVYYCAAGTFYRPTYCHREYDYWGQGTQVTVSS,low polyreactivity
18,QVQLVESGGGLVQAGGSLRLSCAASGRIFKRYAMGWYRQAPGKERELVAAITYNSGSTYYADSVKGRFTISRDNAKNTVYLQMNSLKPEDTAVYYCAAEKWSDQSPRGDYWGQGTQVTVSS,low polyreactivity
19,QVQLVESGGGLVQAGGSLRLSCAASGRTFAYYAMGWYRQAPGKERELVAAISGNGGRTYYADSVKGRFTISRDNAKNTVYLQMNSLKPEDTAVYYCNAAVGYYSYSYYTKVGVDYWGQGSQVTVSS,high polyreactivity
20,QVQLVESGGGLVQAGGSLPLSCAASGITIYGYAMGWYRQAPGKESELVAAMSTSGGRTYYADSVKGRFTISRDNAKNTVYLQMNSMKPEDTAVYYCAVAPYKGTWDSRSSWRRRAYWGQGTQVTVSS,high polyreactivity
21,QVQLVESGGGLVQAGGSLRLSCAASGSIFGLYAMGWYRQAAGKERELVAAISASGGSTYYADSVKGRFTISRDNAKNTVYLQMNSLKPEDTAVYYCAVKWRGGPQRGFNYWGQGTQVTVSS,high polyreactivity
